# Laboratory results from patent US20100048462A1, “TRUNCATED PTH PEPTIDES WITH A CYCLIC CONFORMATION” (Zealand Pharma A/S, priority 2006, published 2010).
# Bridge positions count the residues as written; N and C are the ends. Square brackets hold non-standard residues; d marks the D form. hArg = N=C(N)NCCCC[C@H](N)C(=O)O; Ac5c = NC1(C(=O)O)CCCC1; Dab = NCC[C@H](N)C(=O)O; Aib = CC(C)(N)C(=O)O
# Key:
# CYP2D6 = CYP2D6 (Homo sapiens, UniProt P10635); assay: cell-based or functional assay
# Saos-2 PTH1R = Saos-2 PTH1R (UniProt Q03431); assay: cell-based or functional assay
# Chain of Saos-2 PTH1R (Q03431 27-593 limits assumed): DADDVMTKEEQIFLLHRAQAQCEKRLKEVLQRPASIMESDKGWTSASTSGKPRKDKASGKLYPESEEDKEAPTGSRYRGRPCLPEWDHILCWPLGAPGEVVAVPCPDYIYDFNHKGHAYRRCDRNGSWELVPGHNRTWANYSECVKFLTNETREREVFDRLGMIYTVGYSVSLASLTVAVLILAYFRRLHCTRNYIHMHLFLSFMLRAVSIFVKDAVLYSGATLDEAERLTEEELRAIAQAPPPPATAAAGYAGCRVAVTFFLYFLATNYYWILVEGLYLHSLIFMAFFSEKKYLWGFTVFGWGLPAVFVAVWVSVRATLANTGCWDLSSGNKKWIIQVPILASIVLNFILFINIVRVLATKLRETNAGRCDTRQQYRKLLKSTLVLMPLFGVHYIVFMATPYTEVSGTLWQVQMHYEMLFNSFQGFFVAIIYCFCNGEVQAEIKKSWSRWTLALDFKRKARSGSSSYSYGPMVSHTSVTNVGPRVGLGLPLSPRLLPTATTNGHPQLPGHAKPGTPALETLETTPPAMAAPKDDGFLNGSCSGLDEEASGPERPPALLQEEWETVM
# Chain of CYP2D6 (P10635 whole entry): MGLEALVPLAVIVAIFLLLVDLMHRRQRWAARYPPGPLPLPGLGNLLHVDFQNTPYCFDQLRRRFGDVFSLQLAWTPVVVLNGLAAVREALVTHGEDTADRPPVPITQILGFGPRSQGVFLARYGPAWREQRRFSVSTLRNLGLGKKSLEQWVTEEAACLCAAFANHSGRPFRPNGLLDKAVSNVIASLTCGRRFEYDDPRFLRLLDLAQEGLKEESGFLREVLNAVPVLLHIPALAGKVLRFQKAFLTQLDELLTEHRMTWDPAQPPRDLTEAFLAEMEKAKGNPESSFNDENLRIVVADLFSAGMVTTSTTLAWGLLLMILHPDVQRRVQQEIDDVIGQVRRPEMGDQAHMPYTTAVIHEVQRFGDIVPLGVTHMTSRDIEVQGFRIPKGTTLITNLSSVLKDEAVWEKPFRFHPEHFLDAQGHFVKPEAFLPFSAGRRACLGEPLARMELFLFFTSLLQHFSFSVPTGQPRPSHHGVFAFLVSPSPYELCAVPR
molecule,measurement,setting,value
H-Ac5c-Val-Aib-Glu-Ile-Gln-Leu-Met-His-Glu-Har-Ala-Lys( )-Trp-Leu-Asn-Asp( )-NH2 (peptide),"CYP2D6 activity (% of vehicle), dextrorphan formation rate in human liver microsomes, 10 µM peptide",CYP2D6,83 % of vehicle
same,"Emax, cAMP efficacy assay in Saos-2 cells (24T, trifluoroacetate salt) (relative to control (SEQ ID NO: 32))",Saos-2 PTH1R,1.4
same,"pEC50, cAMP efficacy assay in Saos-2 cells (24T, trifluoroacetate salt)",Saos-2 PTH1R,6.9 -log(M)
H-Ac5c-Val-Aib-Glu-Ile-Gln-Leu-Nle-His-Gln-Har-Ala-Lys( )-Trp-Leu-Asn-Asp( )-NH2 (peptide),"CYP2D6 activity (% of vehicle), dextrorphan formation rate in human liver microsomes, 10 µM peptide",CYP2D6,99 % of vehicle
same,"Emax, cAMP efficacy assay in Saos-2 cells (20T, trifluoroacetate salt) (relative to control (SEQ ID NO: 32))",Saos-2 PTH1R,0.97
same,"pEC50, cAMP efficacy assay in Saos-2 cells (20T, trifluoroacetate salt)",Saos-2 PTH1R,8.1 -log(M)
H-Ac5c-Val-Aib-Glu-Ile-Glu-Leu-Met-His-Gln-Har-Ala-Lys( )-Trp-Leu-Asn-Asp( )-NH2 (peptide),"CYP2D6 activity (% of vehicle), dextrorphan formation rate in human liver microsomes, 10 µM peptide",CYP2D6,89 % of vehicle
same,"Emax, cAMP efficacy assay in Saos-2 cells (18T, trifluoroacetate salt) (relative to control (SEQ ID NO: 32))",Saos-2 PTH1R,1.24
same,"pEC50, cAMP efficacy assay in Saos-2 cells (18T, trifluoroacetate salt)",Saos-2 PTH1R,7.29 -log(M)
H-[Ac5c]V[Aib]EIQLMHNLGKHLNS-NH2 (SMILES CC[C@H](C)[C@H](NC(=O)[C@H](CCC(=O)O)NC(=O)C(C)(C)NC(=O)[C@@H](NC(=O)C1(N)CCCC1)C(C)C)C(=O)N[C@@H](CCC(N)=O)C(=O)N[C@@H](CC(C)C)C(=O)N[C@@H](CCSC)C(=O)N[C@@H](Cc1c[nH]cn1)C(=O)N[C@@H](CC(N)=O)C(=O)N[C@@H](CC(C)C)C(=O)NCC(=O)N[C@@H](CCCCN)C(=O)N[C@@H](Cc1c[nH]cn1)C(=O)N[C@@H](CC(C)C)C(=O)N[C@@H](CC(N)=O)C(=O)N[C@@H](CO)C(N)=O) [H-Ac5c-V-Aib-…-NH2],"CYP2D6 activity (% of vehicle), dextrorphan formation rate in human liver microsomes, 10 µM peptide",CYP2D6,48 % of vehicle
same,"Emax, cAMP efficacy assay in Saos-2 cells (35T, trifluoroacetate salt) (relative to control (SEQ ID NO: 32))",Saos-2 PTH1R,1.2
same,"pEC50, cAMP efficacy assay in Saos-2 cells (35T, trifluoroacetate salt)",Saos-2 PTH1R,5.09 -log(M)
H-[Ac5c]V[Aib]EIQLLHQ[hArg]A[Dab]WLND-NH2 (lactam 13-17; SMILES CC[C@H](C)[C@H](NC(=O)[C@H](CCC(=O)O)NC(=O)C(C)(C)NC(=O)[C@@H](NC(=O)C1(N)CCCC1)C(C)C)C(=O)N[C@@H](CCC(N)=O)C(=O)N[C@@H](CC(C)C)C(=O)N[C@@H](CC(C)C)C(=O)N[C@@H](Cc1c[nH]cn1)C(=O)N[C@@H](CCC(N)=O)C(=O)N[C@@H](CCCCNC(=N)N)C(=O)N[C@@H](C)C(=O)N[C@H]1CCNC(=O)C[C@@H](C(N)=O)NC(=O)[C@H](CC(N)=O)NC(=O)[C@H](CC(C)C)NC(=O)[C@H](Cc2c[nH]c3ccccc23)NC1=O) [H-Ac5c-Val-Aib-Glu-Ile-Gln-Leu-Leu-His-Gln-Har-Ala-Dab( )-Trp-Leu-Asn-Asp( )-NH2],"CYP2D6 activity (% of vehicle), dextrorphan formation rate in human liver microsomes, 10 µM peptide",CYP2D6,82 % of vehicle
same,"Emax, cAMP efficacy assay in Saos-2 cells (41T, trifluoroacetate salt) (relative to control (SEQ ID NO: 32))",Saos-2 PTH1R,0.99
same,"pEC50, cAMP efficacy assay in Saos-2 cells (41T, trifluoroacetate salt)",Saos-2 PTH1R,7.19 -log(M)
H-[Ac5c]V[Aib]EIQLMHQ[hArg]ACWLNC-NH2 (disulfide 13-17; SMILES CC[C@H](C)[C@H](NC(=O)[C@H](CCC(=O)O)NC(=O)C(C)(C)NC(=O)[C@@H](NC(=O)C1(N)CCCC1)C(C)C)C(=O)N[C@@H](CCC(N)=O)C(=O)N[C@@H](CC(C)C)C(=O)N[C@@H](CCSC)C(=O)N[C@@H](Cc1c[nH]cn1)C(=O)N[C@@H](CCC(N)=O)C(=O)N[C@@H](CCCCNC(=N)N)C(=O)N[C@@H](C)C(=O)N[C@H]1CSSC[C@@H](C(N)=O)NC(=O)[C@H](CC(N)=O)NC(=O)[C@H](CC(C)C)NC(=O)[C@H](Cc2c[nH]c3ccccc23)NC1=O) [H-Ac5c-Val-Aib-Glu-Ile-Gln-Leu-Met-His-Gln-Har-Ala-Cys( )-Trp-Leu-Asn-Cys( )-NH2],"CYP2D6 activity (% of vehicle), dextrorphan formation rate in human liver microsomes, 10 µM peptide",CYP2D6,85 % of vehicle
same,"Emax, cAMP efficacy assay in Saos-2 cells (7T, trifluoroacetate salt) (relative to control (SEQ ID NO: 32))",Saos-2 PTH1R,1.2
same,"pEC50, cAMP efficacy assay in Saos-2 cells (7T, trifluoroacetate salt)",Saos-2 PTH1R,7.3 -log(M)
